Data set [1] deals with hnRNP A1 (cited work) (UniProt P09651). Kind of data set: filter binding. The following applies: cited from earlier work.
The target is the same in data set [2]. In words: fluorescence assay. The following applies: cited from earlier work.
The target in a further data set is T1, Lin28 ZnF (UniProt Q9H9Z2 137-176).
T1 chain: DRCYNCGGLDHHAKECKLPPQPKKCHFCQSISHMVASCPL
Kind of data set: plate binding, coated protein.

hnRNP A1 (cited work), sequence (P09651 whole entry): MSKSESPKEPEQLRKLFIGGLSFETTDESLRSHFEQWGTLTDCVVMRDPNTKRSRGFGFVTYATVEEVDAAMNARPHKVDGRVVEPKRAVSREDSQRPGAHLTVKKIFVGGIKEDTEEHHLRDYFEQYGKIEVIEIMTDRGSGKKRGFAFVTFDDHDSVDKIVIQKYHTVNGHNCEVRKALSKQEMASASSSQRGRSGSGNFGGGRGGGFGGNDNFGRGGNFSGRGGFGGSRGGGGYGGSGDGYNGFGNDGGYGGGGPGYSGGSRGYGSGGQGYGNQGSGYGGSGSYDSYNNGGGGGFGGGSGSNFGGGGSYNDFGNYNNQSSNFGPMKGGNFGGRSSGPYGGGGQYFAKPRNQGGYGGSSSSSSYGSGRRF

A word on the Kd: it is the constant that tells how readily two partners part at equilibrium. For the molecule “UAUGAUAGGGACUUAGGGUG [hnRNP A1 SELEX winner]”, the Kd with hnRNP A1 (cited work) [1] was 1 nM; in the data set with hnRNP A1 (cited work) [2], 2.5 nM.

B1: pre-miR-9-1 (structured_RNA)
RNA: UCUUUGGUUAUCUAGCUGUAUGAGUGGUGUGGAGUCUUCAUAAAGCUAGAUAACCGAAAGU
Regarding B1, in the data set with Lin28 ZnF, the binding result is “binds”.
